In patent US8927207B2, “miRNAs as therapeutic targets in cancer” (Research Foundation of State University of New York, priority 2008, dated 2015):
Read-outs that look alike come from different tables or passages of the source. Blank lines part the entries; values can stand above or below the molecule they belong to.

Tests used:
[1] = test system: conserved p53-binding promoter of miR-192; assay: luciferase reporter assay of p53-binding promoter of miR-192; format: cell-based, human; details: HCT (wt-p53) cells, 5 μmol/L for 24 hours
Text: Luciferase reporter assay was used to determine the transcriptional activation of conserved p53-binding promoter of miR-192. pGL3-Basic promoterless luciferase reporter plasmid (Promega) was used in this study. Double-stranded DNA oligonucleotides of conserved p53-binding sequence of miR-192 was synthesized and annealed and cloned upstream of firefly luciferase in the pGL3-Basic plasmid (miR-192-pGL3). […] Control vector and miR-192-pGL3 vector were transfected into both HCT-116 (wt-p53) and HCT-116 (null-p53) cells. To further induce p53 expression, transfected HCT-116 (wt-p53) and HCT-116 (null-p53) cells were also treated with 5 μmol/L 5-fluorouracil for 24 hours. The promoter activity of each construct was quantified by dual luciferase assay (Promega) 24 hours after transfection.

[2] = test system: miR-192; assay: real time qRT-PCR of endogenous mature miR-192 after MTX treatment; format: cell-based, human
Protocol: Thereafter, the expression of endogenous mature miR-192 was analyzed by real time qRT-PCT analysis using an internal control RNU6B as an internal standard for normalization. The cDNA synthesis was carried out with the High Capacity cDNA synthesis kit (Applied Biosystems) using 10 ng of total RNA as template. The miRNA sequence-specific RT-PCR primers for miR-192 and endogenous control RNU6B were purchased from Ambion. Real-time quantitative reverse transcription-PCR (qRT-PCR) analysis was carried out using Applied Biosystems 7500 Real-Time PCR System. The PCR master mix containing TaqMan 2× Universal PCR Master Mix (No Amperase UNG), 10× TaqMan assay and RT products in 20 μl volume were processed as follows: 95° C. for 10 minutes, and then 95° C. for 15 seconds, 60° C. for 60 seconds for up to 40 cycles (n=3). Signal was collected at the endpoint of every cycle. The gene expression ΔCT values of miRNAs from each sample were calculated by normalizing with internal control RNU6B and relative quantitation values were plotted.

[3] = test system: U-2 OS cells; assay: WST-1 chemosensitivity to MTX after transfection; format: cell-based; details: for IC50: Homo sapiens, U2OS, 72 h
[4] = test system: HCT-116(wt-p53) cells; assay: WST-1 chemosensitivity to TDX after transfection; format: cell-based; details: Homo sapiens, HCT-116, 72 h
Protocol: HCT-116 (wt-p53) cells were plated in 96-well plates at 1×10^3 cells/well in triplicate and were transfected with miR-215 precursor, non-specific control miRNA, or siRNA against TS or DHFR in 100 μl of medium. […] To measure viable cells, 10 μl of WST-1 (Roche Applied Science) was added to each well. After 2 hours incubation, absorbance was measured at 450 and 630 nm respectively (n=3). Non-specific control miRNA alone was used as a negative control, and siRNAs incubation with TDX or MTX were used as the positive controls.

[5] = test system: HCT-116 (wt-p53) cells; assay: WST-1 cell proliferation after miR-215 transfection; format: cell-based, human; details: day 5, vs non-specific miRNA control
Protocol: (§1) miR-215 inhibits cell proliferation of HCT-116(wt-p53) and U-2 OS cells.
(§2) Cell proliferation assays were performed on the transduced cells. HCT-116 (wt-p53), HCT-116 (null-p53), U-2 OS, and MG63 cells were plated in 96-well plates in triplicate at 1 10^3 cells/well after transfection with miR-215 precursor or non-specific control miRNA. Cells were cultured for 24, 48, 72, 96 h. The absorbance at 450 and 630 nm was measured after incubation with 10 μl of WST-1 for 2 h.

[6] = test system: U-2 OS cells; assay: as above; format: cell-based; details: day 5, vs non-specific miRNA control
Protocol: as §1, §2

[7] = test system: U-2 OS cells; assay: cell cycle analysis by flow cytometry; format: cell-based
Protocol: miR-215 induces G2-arrest in HCT-116 (wt-p53) and U-2 OS cells. To investigate the mechanism by which miR-215 suppressed cell proliferation in HCT-116 (wt-p53) and U-2 OS cells, the impact of miR-215 on cell cycle control was analyzed by flow cytometry at 36 h after transfection. HCT-116 (wt-p53), HCT-116 (null-p53), U-2 OS and MG63 cells were transfected with miR-215 precursor and the non-specific control miRNA described as above. At 36 h after transfection, cells were harvested and resuspended at 0.5-1 10^5 cells/ml in modified Krishan buffer containing 0.1% sodium citrate and 0.3% NP-40 and kept at 4° C. Before analysis by flow cytometry, cells were treated with 0.02 mg/ml RNase H and stained with 0.05 mg/ml propidium iodide (Sigma).

[8] = test system: p53; assay: western immunoblot of p53 in HCT-116 (wt-p53) and U-2 OS cells; format: cell-based; details: both HCT-116 (wt-p53) and U-2 OS cells, 48 h after transfection
Text: (§3) miR-215 increases the expression of cell cycle control genes p53 and p21. p53 and p21, a downstream target of the p53 pathway of growth control, are reported to block cells at G2 checkpoint mainly through inhibiting activity of Cdc2, the cyclin-dependent kinase that normally drives cells into mitosis, which is the ultimate target of pathways that mediate rapid arrest in G2 in response to DNA damage. To further analyze the mechanism of cell proliferation inhibition by miR-215, we transfected miR-215 precursor into HCT-116 (wt-p53) and U-2 OS cells, and evaluated the levels of cell cycle control genes p53 and p21 by western immunoblot analysis.

[9] = test system: p21; assay: western immunoblot of p21 in HCT-116 (wt-p53) and U-2 OS cells; format: cell-based; details: both HCT-116 (wt-p53) and U-2 OS cells, 48 h after transfection
Text: as §3

[10] = test system: TS; assay: western immunoblot of TS protein after transfection; format: cell-based; details: 48 hours after transfection
Protocol: At 48 h after transfection with miR-215, miR-192 precursors or non-specific control miRNA, the cells were scraped and lysed in RIPA buffer (Sigma). Equal amounts of proteins were resolved by SDS-PAGE on 12% gels by the method of Laemmli, and transferred to polyvinylidene fluoride membranes (BIO-RAD Laboratories). The membranes were then blocked by 5% nonfat milk in TBS-T (Tris-buffered saline and 0.5% Tween-20) at room temperature for 1 h. The primary antibodies used for the analysis included mouse anti-TS mAb (1:400, Millipore), mouse anti-DHFR mAb (1:250, BD Bioscience), mouse anti-p53 mAb (1:1000, DO-1), mouse anti-p21 mAb (1:1000, F-5), and mouse anti-α-tubulin mAb (1:1000, TU-02) purchased from Santa Cruz Biotechnology. Horseradish peroxidase—conjugated antibodies against mouse (1:1000, Santa Cruz Biotechnology) were used as the secondary antibodies. Protein bands were visualized with a chemiluminescence detection system using the Super Signal substrate (BIO-RAD).
At 48 hours after transfection, proteins were extracted from miR-215-transfected cells and from control cells and changes in TS or DHFR protein levels were determined by western immunoblot analysis (FIG. 14).

[11] = test system: TS mRNA; assay: real time qRT-PCR of TS mRNA; format: cell-based; details: U-2 OS cells
Protocol: (§6) Expression levels of TS or DHFR mRNA were analyzed using real time qRT-PCR analysis (FIG. 15).

[12] = test system: DHFR mRNA; assay: real time qRT-PCR of DHFR mRNA; format: cell-based; details: U-2 OS cells
Protocol: as §6

[13] = test system: 3′UTR of DHFR; assay: pMIR-REPORT dual-luciferase reporter assay; format: cell-based, human; details: HCT-116 (wt-p53), 30 hours after transfection, compared to the vector alone
Text: (§4) To confirm whether miR-215 directly targets TS or DHFR, plasmids were constructed containing the fragments of the 3′UTR of TS or DHFR in the downstream region of firefly luciferase. The pMIR-REPORT Luciferase miRNA Expression Reporter Vector (Ambion) was used to determine the targets of miR-215. Double stranded DNA oligonucleotides containing the miR-215 binding sequence (wt-miR-215) or mismatch sequence (mut-miR-215) in 3′UTR of TS or DHFR mRNA and the HindIII and SpeI restriction site overhangs were synthesized (IDT, Coralville, Iowa) and annealed and cloned downstream of firefly luciferase in the pMIR-REPORT plasmid. The sequences of these synthesized oligonucleotides are provided below. The 3′UTR of TS includes two miR-215 binding sites: one is located at 84-104 bp, one is located at 216-236 bp.
(§5) The constructs were transiently transfected into HCT-116 (wt-p53) cells alone (control) or together with miR-215 precursor. […] Thirty hours after transfection, cells were lysated and luciferase activity was measured by the dual-luciferase reporter assay system (Promega, Madison, Wis.) according to the instructions. […]

[14] = test system: 3′UTR of TS; assay: pMIR-REPORT dual-luciferase reporter assay; format: cell-based, human; details: HCT-116 (wt-p53), 30 hours after transfection, compared to the vector alone
Text: as §4, §5

activation of luciferase expression from miR-192 promoter p53 binding site [1]: further enhanced
Molecule: O=c1[nH]cc(F)c(=O)[nH]1 [5-fluorouracil]

Molecule: CN(Cc1cnc2nc(N)nc(N)c2n1)c1ccc(C(=O)N[C@@H](CCC(=O)O)C(=O)O)cc1 [MTX, methotrexate]
expression of endogenous mature miR-192 ([2]; HCT-116 (null-p53)): did not cause any change
expression of endogenous mature miR-192 ([2]; HT-29 (mut-p53)): did not cause any change
expression of endogenous mature miR-192 ([2]; cells with p53 induction (wt-p53), RNU6B normalized): significant increase
IC50 ([3]; read-out: IC50 of MTX, negative control (non-specific control miRNA), 72 hours): 49.7 nM
IC50 ([3]; read-out: IC50 of MTX, positive control (siRNA against DHFR), 72 hours): 37.3 nM
cells still alive ([3]; miR-215 transduced U-2 OS cells at 200 nM of MTX): 83.6%

IC50 ([4]; HCT-116(wt-p53) cells transfected with miR-215, 72 hours): 98.7 nM
IC50 ([4]; negative control (non-specific control miRNA), 72 hours): 18.6 nM
IC50 ([4]; positive control (siRNA against TS), 72 hours): 8.5 nM
Molecule: Cc1nc2ccc(CN(C)c3ccc(C(=O)N[C@@H](CCC(=O)O)C(=O)O)s3)cc2c(=O)[nH]1 [TDX, Ralitrexed]

B1: miR-215: microRNA miR-215 (SEQ ID NO:9), transfected as precursor, 72 bps hairpin stem loop processed by DICER (nucleic acid)
chain: AUCAUUCAGAAAUGGUAUACAGGAAAAUGACCUAUGAAUUGACAGACAAUAUAGCUGAGUUUGUCUGUCAUUUCUUUAGGCCAAUAUUCUGUAUGACUGUGCUACUUCAA
modifications: delivered as precursor hairpin, further chemistry not given here
reduction in cell proliferation (OD) [5]: approximately 40%
reduction in cell proliferation (OD) [6]: ~58%
G2/S ratio ([7]; 36 h after transfection (control 0.35)): 0.72
proportion of cells in the G2-phase ([7]; 36 h after transfection (control 18.50%)): 29.69%
proportion of cells in the S-phase ([7]; 36 h after transfection (control 52.08%)): 41.24%
increase of G2/S ratio ([7]; vs control): > 2 fold
p53 protein level [8]: significant increase
p21 protein level [9]: significant increase
TS protein levels [10]: clearly decreases
TS mRNA expression [11]: no reduction
DHFR mRNA expression [12]: no reduction
luciferase activity, DHFR 3′UTR construct [13]: significant decrease
luciferase activity, TS 3′UTR construct [14]: significant decrease
